From patent US20150266963A1 (ARGEN X B V, published 2015)
Where two headings read alike, the source gives them in different places.

Experiments:
[1] = target: T1, human CD70 expressed on the surface of cells (human, UniProt P32970 1-193); assay: cell-based or functional assay
T1 sequence (looked up): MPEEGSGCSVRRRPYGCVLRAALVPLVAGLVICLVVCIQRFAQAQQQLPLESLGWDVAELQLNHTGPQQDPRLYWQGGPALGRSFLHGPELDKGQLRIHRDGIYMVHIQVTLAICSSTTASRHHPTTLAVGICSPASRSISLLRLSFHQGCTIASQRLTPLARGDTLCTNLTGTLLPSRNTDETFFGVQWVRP

[2] = target: T1, human CD70 expressed on the surface of …; assay: cell-based or functional assay; remark: listed apart in the source
[3] = target: T1, human CD70 expressed on the surface of …; assay: cell-based or functional assay; remark: listed apart in the source
[4] = target: T1, human CD70 expressed on the surface of …; assay: flow cytometry on 786-O cells; anti-human Fc-FITC
Experimental: Fluorescence of 10,000 cells/condition was measured using a flow cytometer and the median fluorescence was plotted.

[5] = target: T2, rhesus recombinant CD70 (FLAG-TNC-rhesus CD70) (rhesus); assay: inhibition ELISA; FLAG-TNC-rhesus CD70; competitor CD27-Fc
T2 construct: also called rhesus Flag-TNC-CD70
Description: In this assay, Flag-TNC-CD70 is captured by an anti-Flag mAb and binding of CD27-Fc is detected via a biotinylated anti-CD27 mAb and strep-HRP in the absence or presence of CD70 Fabs (FIGS. 2 and 3) or CD70 mAbs (FIG. 4). In FIG. 2B it can be seen that 27B3, which has an identical VH as 9D1, but contains a somewhat different light chain, seems to block binding of CD27 to CD70 more efficiently, which was in line with the better off rate of this Fab as measured on Biacore (data not shown). Table 3 indicates the blocking potency (expressed as IC50) for the various llama-human chimeric mAbs tested in the CD70 inhibition ELISA. […] FIG. 3 is a composite of an experiment testing llama CD70 Fabs for blocking activity (in the inhibition ELISA, see white bars) and for CD70 binding (binding ELISA, black bars). For the binding ELISA, Flag-TNC-CD70 is captured by an anti-Flag mAb and binding of the Fabs is detected using an anti-myc-HRP mAb, which recognizes the MYC tag fused to the C-terminus of the Fd fragment. For comparison purposes, known monoclonal antibodies to CD70 (SGN70 described in US 2010/0129362 A1, clone 1F6; and MDX69A7 described in WO2008/074004 FIGS. 5A and 5B) were tested in parallel. […] Of interest is clone 59D10, which as Fab has no blocking activity, but when converted into a chimeric IgG was antagonistic (see Table 3). […]

[6] = target: T3, recombinant human CD70 (Flag-TNC-CD70) (human, UniProt P32970 39-193); assay: inhibition ELISA; Flag-TNC-CD70 captured by anti-Flag mAb; competitor CD27-Fc
T3 construct: extracellular domain; Captured by anti-Flag mAb in ELISA; as 'recombinant human CD70' immobilised on Biacore CM5 chips; TNC is for trimerisation; also called recombinant CD70; human recombinant CD70; not shown: Flag tag and TNC trimerisation domain
T3 sequence (looked up): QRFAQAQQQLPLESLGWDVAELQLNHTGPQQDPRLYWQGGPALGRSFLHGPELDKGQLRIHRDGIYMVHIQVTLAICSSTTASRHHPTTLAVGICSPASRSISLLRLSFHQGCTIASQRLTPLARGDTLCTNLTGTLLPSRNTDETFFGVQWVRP
Experimental: From selected phage transfected into TG1, individual colonies were picked randomly for growth in 96 well plates. After IPTG induction according to standard protocols periplasmic fractions (penis) containing Fabs were prepared. […] In this assay, Flag-TNC-CD70 is captured by an anti-Flag mAb and binding of CD27-Fc is detected via a biotinylated anti-CD27 mAb and strep-HRP in the absence or presence of CD70 Fabs (FIGS. 2 and 3) or CD70 mAbs (FIG. 4). In FIG. 2B it can be seen that 27B3, which has an identical VH as 9D1, but contains a somewhat different light chain, seems to block binding of CD27 to CD70 more efficiently, which was in line with the better off rate of this Fab as measured on Biacore (data not shown). Table 3 indicates the blocking potency (expressed as IC50) for the various llama-human chimeric mAbs tested in the CD70 inhibition ELISA. […] FIG. 3 is a composite of an experiment testing llama CD70 Fabs for blocking activity (in the inhibition ELISA, see white bars) and for CD70 binding (binding ELISA, black bars). For the binding ELISA, Flag-TNC-CD70 is captured by an anti-Flag mAb and binding of the Fabs is detected using an anti-myc-HRP mAb, which recognizes the MYC tag fused to the C-terminus of the Fd fragment. For comparison purposes, known monoclonal antibodies to CD70 (SGN70 described in US 2010/0129362 A1, clone 1F6; and MDX69A7 described in WO2008/074004 FIGS. 5A and 5B) were tested in parallel. […] Of interest is clone 59D10, which as Fab has no blocking activity, but when converted into a chimeric IgG was antagonistic (see Table 3). Amino acid sequences of the VH and VL domains of binding and blocking llama-derived Fab clones are shown elsewhere herein (Tables 6-9).

[7] = target: T3, recombinant human CD70 (Flag-TNC-CD70); assay: as above; remark: listed apart in the source
Method in brief: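 Flag-TNC-CD70 captured by anti-Flag mAb, then incubated with CD27-Fc with or without titrated Fabs (periplasmic extracts) or chimeric mAbs. Bound CD27-Fc detected via biotinylated anti-CD27 mAb and strep-HRP, and blocking potency expressed as IC50.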

IC50, IL-8 secretion in Raji / HT1080-CD27 co-culture assay [1]: 33 pM | IC50 (ng/ml), IL-8 secretion in Raji / HT1080-CD27 co-culture assay [2]: 5 ng/mL | Raji co-culture assay IC50 relative to 27B3 [3]: 1 fold of 27B3 | EC50 [4]: 240 pM | IC50 [5]: 0.15 µg/mL | IC50 [6]: 250 pM | IC50 [7]: 0.038 µg/mL
B1: 27B3 chimeric llama-human mAb (antibody, human IgG1, V domains shown)
VH: EVQLVESGGGLVQPGGSLRLSCAASGFTFSVYYMNWVRQAPGKGLEWVSDINNEGGTTYYADSVKGRFTISRDNAKNTLTLQMNSLKPEDTALYYCVRDAGYSNHVPIFDSWGQGTQVIVAS
VL: QAVVTQEPSLTVSPGGTVTLTCGLKSGSVTSTNFPTWYQQTPGQAPRLLIYNTNTRHSGVPSRFSGSISENKAALTITGAQPEDEAEYFCALFISNPSVEFGGGTQLTVLS
notes: also called SIMPLE antibody 27B3; mAb 27B3
